Kd data for two substances are collected here from publication PMC10697138.

The target of assay [1] is IL-4Rα (Homo sapiens) (UniProt P24394). The conditions noted are these: cited from earlier work.
Assay [2] has as its target hIL-4Rα–hIL-13Rα1 complex (human type II IL-4 receptor) (human) (UniProt P78552).

Bounds are passed on as bounds.

Chain of UniProt P24394 (P24394 26-232): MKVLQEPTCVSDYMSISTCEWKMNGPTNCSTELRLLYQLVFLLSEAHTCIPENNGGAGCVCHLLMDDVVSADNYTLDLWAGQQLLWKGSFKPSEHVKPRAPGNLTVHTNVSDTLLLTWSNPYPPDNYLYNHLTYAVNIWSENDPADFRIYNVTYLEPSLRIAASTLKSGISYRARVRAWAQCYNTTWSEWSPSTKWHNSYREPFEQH
Chain of UniProt P78552 (P78552 22-343, chain 1 of 2): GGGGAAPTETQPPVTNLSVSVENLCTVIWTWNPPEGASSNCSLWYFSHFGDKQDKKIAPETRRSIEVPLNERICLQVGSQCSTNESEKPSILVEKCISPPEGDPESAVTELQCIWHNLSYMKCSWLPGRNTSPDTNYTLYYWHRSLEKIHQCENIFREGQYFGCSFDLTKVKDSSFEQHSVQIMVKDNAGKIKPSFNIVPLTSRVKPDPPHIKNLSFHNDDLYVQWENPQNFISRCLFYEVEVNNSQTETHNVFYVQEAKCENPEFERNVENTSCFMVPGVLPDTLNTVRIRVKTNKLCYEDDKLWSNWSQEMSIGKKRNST
Chain of UniProt P78552 (P24394 26-232, chain 2 of 2, further chain): as the sequence (P24394 26-232) above

With IL-4 (from UniProt P05112), in assay [1], the Kd is less than 1 nM. In assay [2], “human interleukin-4 (hIL-4) (from UniProt P05112 25-153) (ligand)” came in with a Kd of 101 nM.

As a reminder, the Kd is a measure of binding affinity in units of concentration.
